Source: article PMC12421412

Target: ectodomain of APP^695 (amyloid precursor protein)
Experiment: SPR; ectodomain of APP^695 coupled to the sensor chip surface; purified SORLA ectodomains as analyte; neutral pH; data also analysed with EVILFIT

SPR sensorgram peak (response units) [RU]	Substance
1650	soluble mutant SORLA^N1358S ectodomain, hexa-His-tagged (from UniProt Q92673 82-2137) (domain or fragment)
1750	soluble wildtype SORLA ectodomain (Sortilin-related receptor with A-type repeats), hexa-His-tagged (from UniProt Q92673 82-2137) (domain or fragment)
